T1: AP2-LT D1 (Plasmodium falciparum, UniProt Q8IAM1 2520-2577)
T1 sequence: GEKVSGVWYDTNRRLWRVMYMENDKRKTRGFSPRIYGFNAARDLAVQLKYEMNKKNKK

T2: PF3D7_0420300 D1 (Plasmodium falciparum, UniProt Q8I1N6 1956-2015)
T2 sequence: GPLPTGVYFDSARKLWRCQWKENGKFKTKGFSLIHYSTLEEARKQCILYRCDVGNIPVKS


Legend:
AP2-LT D1 = molecular target: T1, AP2-LT D1; assay: gcPBM; about 25 ug protein; PBS, 1% milk, 0.2 mg/ml BSA, salmon testes DNA, 0.03% Triton X-100; conditions: tags: N-terminal GST (pGEX-4T-1), kept; label: surface-attached array probe
PF3D7_0420300 D1 = molecular target: T2, PF3D7_0420300 D1; assay: as above; conditions: tags: N-terminal GST (pGEX-4T-1), kept; label: surface-attached array probe

Binder | binding signal (AP2-LT D1) | binding signal (PF3D7_0420300 D1)
CACACA_negctrl_site949 (dsDNA) DNA 1: TATATATGGGTACTAATTCCTTTAATTTCTTTAATT DNA 2: AATTAAAGAAATTAAAGGAATTAGTACCCATATATA | 8.85 ln median PBM intensity, better of two orientations | –
CACACA_negctrl_site43 (dsDNA) DNA 1: TTCTTAATTCATACCATCAAAACATTTATTCATATC DNA 2: GATATGAATAAATGTTTTGATGGTATGAATTAAGAA | 8.88 ln median PBM intensity, better of two orientations | –
CACACA_negctrl_site996 (dsDNA) DNA 1: GAAAAAAAAAAAAAAAAAAAAAGGAAAAAAGTGAAA DNA 2: TTTCACTTTTTTCCTTTTTTTTTTTTTTTTTTTTTC | 8.82 ln median PBM intensity, better of two orientations | –
CACACA_negctrl_site1333 (dsDNA) DNA 1: AATTAAGTTAAACATTAAAAAAAACAAAAAATTAAA DNA 2: TTTAATTTTTTGTTTTTTTTAATGTTTAACTTAATT | 8.76 ln median PBM intensity, better of two orientations | –
CACACA_negctrl_site1031 (dsDNA) DNA 1: ATTATTTGAACAACAAAAAAAAAGAAAAGAAAAGAA DNA 2: TTCTTTTCTTTTCTTTTTTTTTGTTGTTCAAATAAT | 8.83 ln median PBM intensity, better of two orientations | –
CACACA_negctrl_site1820 (dsDNA) DNA 1: AGAATTGTTGTTAAAGAATTCTTTTTTATCCTTCCC DNA 2: GGGAAGGATAAAAAAGAATTCTTTAACAACAATTCT | 8.88 ln median PBM intensity, better of two orientations | –
CACACA_negctrl_site1662 (dsDNA) DNA 1: TTATTCAGAAAAAAAAAAAAAAAAAAAAAAAAAAAA DNA 2: TTTTTTTTTTTTTTTTTTTTTTTTTTTTCTGAATAA | 8.18 ln median PBM intensity, better of two orientations | 8.5 ln median PBM intensity, better of two orientations
CACACA_negctrl_site1708 (dsDNA) DNA 1: AAAACTTTTTTAACAGAAAAATAGGGATACAATATA DNA 2: TATATTGTATCCCTATTTTTCTGTTAAAAAAGTTTT | 8.86 ln median PBM intensity, better of two orientations | –
CACACA_negctrl_site97 (dsDNA) DNA 1: AATAAAGGAAATAAATAATTTATTTTGTAAAATATG DNA 2: CATATTTTACAAAATAAATTATTTATTTCCTTTATT | 8.84 ln median PBM intensity, better of two orientations | –
CACACA_negctrl_site377 (dsDNA) DNA 1: GTATAACAACTGATAAAAGAAAAAAAATTTATTATT DNA 2: AATAATAAATTTTTTTTCTTTTATCAGTTGTTATAC | 8.85 ln median PBM intensity, better of two orientations | –
CACACA_negctrl_site1634 (dsDNA) DNA 1: TTGGTAAATATATTTTGAATATAAGAAATATAGACG DNA 2: CGTCTATATTTCTTATATTCAAAATATATTTACCAA | 8.87 ln median PBM intensity, better of two orientations | –
CACACA_negctrl_site94 (dsDNA) DNA 1: TTTTTTTTTTTTTTTTTTTTTTTCTACCTATTTATT DNA 2: AATAAATAGGTAGAAAAAAAAAAAAAAAAAAAAAAA | 8.86 ln median PBM intensity, better of two orientations | –
CACACA_negctrl_site1157 (dsDNA) DNA 1: TTTTTGTATTCTACCTTAACAATCTTAAAGATTTTT DNA 2: AAAAATCTTTAAGATTGTTAAGGTAGAATACAAAAA | 8.8 ln median PBM intensity, better of two orientations | –
CACACA_site2303 (dsDNA) DNA 1: CATATTCCCCCCCACACACACACACCCATACATACC DNA 2: GGTATGTATGGGTGTGTGTGTGTGGGGGGGAATATG | 10.8 ln median PBM intensity, better of two orientations | 11 ln median PBM intensity, better of two orientations
CACACA_negctrl_site1631 (dsDNA) DNA 1: TTTTAATTAAATACAAAAAAAAAAAAAAAAAAAAAA DNA 2: TTTTTTTTTTTTTTTTTTTTTTGTATTTAATTAAAA | 8.41 ln median PBM intensity, better of two orientations | 8.08 ln median PBM intensity, better of two orientations
CACACA_negctrl_site1633 (dsDNA) DNA 1: AAAAATTAAAATATAACTAATTAATTTGTATTCATT DNA 2: AATGAATACAAATTAATTAGTTATATTTTAATTTTT | 8.76 ln median PBM intensity, better of two orientations | –
CACACA_negctrl_site1417 (dsDNA) DNA 1: AAAAATATTATGATGTTTATTAGAAAGGAAAAAACT DNA 2: AGTTTTTTCCTTTCTAATAAACATCATAATATTTTT | 8.85 ln median PBM intensity, better of two orientations | –
CACACA_negctrl_site1605 (dsDNA) DNA 1: GTTTTTTTATAAAATTTTTATATAATTCTTTTATAA DNA 2: TTATAAAAGAATTATATAAAAATTTTATAAAAAAAC | 8.77 ln median PBM intensity, better of two orientations | –
CACACA_negctrl_site1356 (dsDNA) DNA 1: TGTTTAACACATGTTTCAAACAAAAAAAAAAAGACA DNA 2: TGTCTTTTTTTTTTTGTTTGAAACATGTGTTAAACA | 8.88 ln median PBM intensity, better of two orientations | –
CACACA_negctrl_site982 (dsDNA) DNA 1: ATTTTTTTTTTTTTTTTTTTTTTTTTTGAATTCACA DNA 2: TGTGAATTCAAAAAAAAAAAAAAAAAAAAAAAAAAT | 8.8 ln median PBM intensity, better of two orientations | –
CACACA_negctrl_site1460 (dsDNA) DNA 1: TATTTTACATAAAAGAAAAAAAAAAAAAAAAAAAAA DNA 2: TTTTTTTTTTTTTTTTTTTTTCTTTTATGTAAAATA | 8.54 ln median PBM intensity, better of two orientations | 8.27 ln median PBM intensity, better of two orientations

Binder | binding signal (AP2-LT D1) | binding signal (PF3D7_0420300 D1)
CACACA_site3850 (dsDNA) DNA 1: TAAAATAAAACAAACACACACACACCCCCACAAAAA DNA 2: TTTTTGTGGGGGTGTGTGTGTGTTTGTTTTATTTTA | 10.7 ln median PBM intensity, better of two orientations | 10.7 ln median PBM intensity, better of two orientations
CACACA_negctrl_site1242 (dsDNA) DNA 1: TATTATTGTCTTTCAAAAAAAAAAAAAAAAAAAAAA DNA 2: TTTTTTTTTTTTTTTTTTTTTTGAAAGACAATAATA | 8.23 ln median PBM intensity, better of two orientations | 8.46 ln median PBM intensity, better of two orientations
CACACA_negctrl_site1268 (dsDNA) DNA 1: ATATTTTTATGATGTATCCAAGAAATGGAACTATAT DNA 2: ATATAGTTCCATTTCTTGGATACATCATAAAAATAT | 8.85 ln median PBM intensity, better of two orientations | –
CACACA_negctrl_site338 (dsDNA) DNA 1: TCGTCTCAATAATTATAATAAAAAAATTCCTAAGTC DNA 2: GACTTAGGAATTTTTTTATTATAATTATTGAGACGA | 8.78 ln median PBM intensity, better of two orientations | –
CACACA_negctrl_site1412 (dsDNA) DNA 1: TATATTTGGTTTCATTCATTTTTATAGAAATCTCAA DNA 2: TTGAGATTTCTATAAAAATGAATGAAACCAAATATA | 8.84 ln median PBM intensity, better of two orientations | –
CACACA_negctrl_site1546 (dsDNA) DNA 1: TCATATATTCAAAAATTTAAAGTTAATAAAACTTGA DNA 2: TCAAGTTTTATTAACTTTAAATTTTTGAATATATGA | 8.35 ln median PBM intensity, better of two orientations | 8.61 ln median PBM intensity, better of two orientations
CACACA_negctrl_site1475 (dsDNA) DNA 1: AATGATTTTCAATCGAAATGAAACTTAGAAGATATA DNA 2: TATATCTTCTAAGTTTCATTTCGATTGAAAATCATT | 8.78 ln median PBM intensity, better of two orientations | –
CACACA_negctrl_site1516 (dsDNA) DNA 1: TAACCAAAAAAAAATATTTAAAATAAATATATATAT DNA 2: ATATATATATTTATTTTAAATATTTTTTTTTGGTTA | 8.88 ln median PBM intensity, better of two orientations | –
CACACA_negctrl_site1656 (dsDNA) DNA 1: TTTTGATCTGAAGGAACCTAAAAAGGGAAGAGAAAA DNA 2: TTTTCTCTTCCCTTTTTAGGTTCCTTCAGATCAAAA | 8.82 ln median PBM intensity, better of two orientations | –
CACACA_negctrl_site1062 (dsDNA) DNA 1: TTATATGCATCCAAAAAGGAATGTTTTTAGAGAATC DNA 2: GATTCTCTAAAAACATTCCTTTTTGGATGCATATAA | 8.79 ln median PBM intensity, better of two orientations | –
CACACA_negctrl_site847 (dsDNA) DNA 1: TTTTAAAATAAAAAAATAAAAAAAGGGGAAAAAAAA DNA 2: TTTTTTTTCCCCTTTTTTTATTTTTTTATTTTAAAA | 8.83 ln median PBM intensity, better of two orientations | –
CACACA_negctrl_site1682 (dsDNA) DNA 1: TGTTATATCAATAATATATAATAATACCCTTCTTTT DNA 2: AAAAGAAGGGTATTATTATATATTATTGATATAACA | 8.8 ln median PBM intensity, better of two orientations | –
CACACA_negctrl_site687 (dsDNA) DNA 1: GTTAAACATCTTCTGTGATATGTTAGAATATTATTT DNA 2: AAATAATATTCTAACATATCACAGAAGATGTTTAAC | 8.83 ln median PBM intensity, better of two orientations | –
CACACA_negctrl_site1518 (dsDNA) DNA 1: AAGGGAAAATAATAAAAGAAAAAGAAAAAAAAAAAA DNA 2: TTTTTTTTTTTTCTTTTTCTTTTATTATTTTCCCTT | 8.87 ln median PBM intensity, better of two orientations | –
CACACA_negctrl_site1330 (dsDNA) DNA 1: TAATAAATTCAAAACATAAAAAGGAAAAAAAAAAAA DNA 2: TTTTTTTTTTTTCCTTTTTATGTTTTGAATTTATTA | 8.86 ln median PBM intensity, better of two orientations | –
CACACA_site7149 (dsDNA) DNA 1: CCCCCCCACGAACACACACACATACATACCACATAT DNA 2: ATATGTGGTATGTATGTGTGTGTGTTCGTGGGGGGG | 10.7 ln median PBM intensity, better of two orientations | 10.7 ln median PBM intensity, better of two orientations
CACACA_negctrl_site1067 (dsDNA) DNA 1: ATTATTTTATGAGACATAAAAAAAAAAAAAAAAAAA DNA 2: TTTTTTTTTTTTTTTTTTTATGTCTCATAAAATAAT | 8.39 ln median PBM intensity, better of two orientations | 8.39 ln median PBM intensity, better of two orientations
CACACA_site367 (dsDNA) DNA 1: CACCCACCCAGACACACACACACACCCCCACCCATA DNA 2: TATGGGTGGGGGTGTGTGTGTGTGTCTGGGTGGGTG | 11 ln median PBM intensity, better of two orientations | 10.8 ln median PBM intensity, better of two orientations
CACACA_negctrl_site908 (dsDNA) DNA 1: TTATGGATGGACAATAATAAAATTTTTACTTTTATT DNA 2: AATAAAAGTAAAAATTTTATTATTGTCCATCCATAA | 8.82 ln median PBM intensity, better of two orientations | –
CACACA_negctrl_site1493 (dsDNA) DNA 1: TGTTCTTATTTTATAAGCATATAATTAATCATAATG DNA 2: CATTATGATTAATTATATGCTTATAAAATAAGAACA | 8.77 ln median PBM intensity, better of two orientations | –
